Usually Kd stands for the constant that tells how readily two partners part at equilibrium.

The data set “crystal structure” deals with the molecule itself. In words: crystal structure.
For data set [1], the target named is T1, human Shq1 CS domain without 6XHis-tag (hCS) (human, UniProt Q6PI26 1-96, uniformly 15N-labelled).
T1 sequence (looked up): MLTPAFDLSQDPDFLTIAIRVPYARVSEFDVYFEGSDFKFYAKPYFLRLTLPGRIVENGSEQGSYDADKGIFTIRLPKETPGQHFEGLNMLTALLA
In words: NMR titration.

A value given as a limit tells only on which side of the number the result lay.

B1: human Shq1 CS domain P22S with N-terminal 6XHis-tag (his-hCS(P22S)) (domain or fragment)
chain: MAHHHHHHVDDDDKMLTPAFDLSQDPDFLTIAIRVSYARVSEFDVYFEGSDFKFYAKPYFLRLTLPGRIVENGSEQGSYDADKGIFTIRLPKETPGQHFEGLNMLTALLA
For the molecule B1, the binding result in the data set “crystal structure” was “binds”.
LNVRTTHYTPLA [Dys2S peptide (dyskerin residues 62-73)] registered a Kd in data set [1] of over 500 µM.

Source of the values: article PMC4323627 (Journal of molecular biology, 2014).
